Read-outs that look alike come from different tables or passages of the source. Positions of bridges follow the written chain, without caps; N, C: chain ends. Residues, ends and D or L forms follow the SMILES beside them. *: point of attachment. X1 = CC(CCC(C)C(=O)*)C(=O)OCC(=O)[C@@]1(O)[C@H](C)C[C@H]2[C@@H]3CCC4=CC(=O)C=C[C@]4(C)[C@@]3(F)[C@@H](O)C[C@@]21C
Columns and labels:
[1] = Hydrolysis assay of peptide-drug conjugates in PBS (free Dex by LC/MS); type: physicochemical; conditions: 37° C.
Description: In order to determine hydrolysis rates, conjugates can be diluted in PBS, rat plasma, or human plasma and incubated at 37 degrees. Samples can be taken at designated time-points (e.g., 1, 2, 3, 5, 10, 15, 20, 25, 30, 45, 60, or 90 minutes and/or hours after administration). Internal standards such as triamcinolone acetonide (TAA) can be added as an internal standard, and then active agent/TAA can be extracted using acetonitrile, for example. The samples can be dried down, reconstituted, and analyzed by LC/MS. Data can be normalized using Dex AUC/TAA AUC. Percent hydrolysis can be calculated using the average ratio for active agent AUC/TAA AUC at a time point of maximal drug release. A general method can include using a lyophilized, purified peptide-drug conjugates reconstituted in DMSO following production to generate stock solution at 20 mg/mL. Each conjugate stock can be brought to 0.25 mg/mL in each hydrolysis condition (1×DPBS, human plasma and rat plasma) in triplicate and rocked at 37° C. To quantitate free active agent, 100 μl of the hydrolyzed conjugate solution can be transferred into 1 mL acetonitrile at 4° C. at which time all plasma proteins and intact conjugates can precipitate. This can be performed repeatedly to generate a series of time points (0 hr, 0.5 hr, 1 hr, 2 hr, 4 hr, 6 hr, 8 hr, 24 hr, 32 hr). The acetonitrile solution can be spun at 17,000 g for 5 minutes, and the supernatant removed and added to a 96 well block. The pellet can then be resuspended in 500 μl acetonitrile and re-pelleted as before. The supernatant can be removed and added to the same well in the block. Samples can be prepared for analysis by drying under a nitrogen stream followed by reconstitution in 110 μl 45:55 ACN:Citrate 10 mM pH 5.5. To ensure optimal recovery the block can be shaken via plate shaker at 7,000 rpm for 5 minutes during the reconstitution step. Prior to LC/MS the samples can be transferred to a 96 well plate and centrifuged at 6,500 g for 15 minutes. Analysis can be performed on an Agilent 1260 Infinity series HPLC with inline 6120 single quad MS using acetonitrile, water (+0.1% TFA) gradient (shown below) on an InfinityLab Poroshell SB-C18 column. Quantification of free active agent (or drug) can be achieved through integration of active agent peaks of the TIC.
Lyophilized, purified peptide-drug conjugates were reconstituted in DMSO following production to generate stock solution at 20 mg/mL. Each conjugate stock was brought to 0.25 mg/mL in each hydrolysis condition (1×DPBS, human plasma and rat plasma) in triplicate and rocked at 37° C.
To quantitate free dexamethasone (Dex), 100 μl of the hydrolyzed conjugate solution was transferred into 1 mL acetonitrile at 4° C. at which time all plasma proteins and intact conjugates precipitated. This was performed repeatedly to generate a series of time points (0 hr, 0.5 hr, 1 hr, 2 hr, 4 hr, 6 hr, 8 hr, 24 hr, 32 hr). The corticosteroid triamcinolone acetonide (25 μl, 0.1 mg/mL in 45:55 ACN:Citrate 10 mM pH 5.5) was supplemented into the acetonitrile solution as an internal standard. The acetonitrile solution was spun at 17,000 g for 5 minutes, and the supernatant removed and added to a 96 well block. The pellet was resuspended in 500 μl acetonitrile and re-pelleted as before. The supernatant was removed and added to the same well in the block.
Samples were prepared for analysis by drying under a nitrogen stream followed by reconstitution in 110 μl 45:55 ACN:Citrate 10 mM pH 5.5. To ensure optimal recovery the block was shaken via plate shaker at 7,000 rpm for 5 minutes during the reconstitution step. Prior to LC/MS the samples were transferred to a 96 well plate and centrifuged at 6,500 g for 15 minutes. Analysis was performed on an Agilent 1260 Infinity series HPLC with inline 6120 single quad MS using a gradient of 0.1% TFA in acetonitrile (solvent B), and 0.1% TFA (aq) (solvent A) gradient (shown below) on an InfinityLab Poroshell SB-C18 column. […]

CIA rats [2] = type: in vivo; conditions: 0.05 mg/kg on study day 0 and day 1
Description: A study was conducted in CIA rats to address the following: 1) functionality and duration of effect for peptide(SEQ ID NO: 105)-carbamate-Dex at 0.2 mg/kg as compared to Dex alone at the same dose; 2) functionality and duration of effect for peptide(SEQ ID NO: 105)-DMA-Dex at 0.05 mg/kg as compared to Dex alone at the same dose; 3) systemic markers of Dex exposure in rats treated with each PDC and Dex at their respective doses (FIG. 16B-FIG. 16G).
CIA was induced as described above in EXAMPLE 21. Rats were enrolled in the study following onset of arthritis in at least one ankle and randomly assigned into one of five treatment groups (vehicle; peptide-carbamate 0.2 mg/kg; Dex 0.2 mg/kg; peptide-DMA conjugate 0.05 mg/kg; Dex 0.05 mg/kg) with 5 rats per group. Treatment was administered on study day 0 and study day 1 and rats were euthanized on study day 7. The primary read-out in this cohort was change in ankle diameter during and after treatment, as a measure of functionality and duration of effect. […] The primary read-out for this cohort was measures of systemic exposure to Dex which included thymus weight, spleen weight, total white blood cell counts, lymphocyte counts, and change in body weight.

CIA rats [3] = type: in vivo
Description: Ankle diameter measurements were recorded daily starting on induction day 9 and continuing for the duration of the study. […] Each treatment was administered on the day of enrollment (study day 0) and repeated daily for 7 days (study day 6). Rats were euthanized 3 h after the final dose and blood and organs were collected for testing.

[4] = 0.05 mg/kg daily for 7 days, study day 6

SMILES: CC[C@H](C)[C@@H]1NC(=O)[C@@H]2CSSC[C@H](NC(=O)[C@H](CCCNC(=N)N)NC(=O)[C@@H](NC(=O)[C@H](CC(N)=O)NC(=O)[C@@H](NC(=O)[C@@H]3CCCN3C(=O)[C@@H](NC(=O)CNC(=O)[C@H](CO)NC(=O)CNC(=O)C(C)CCC(C)C(=O)OCC(=O)[C@@]3(O)[C@H](C)C[C@H]4[C@@H]5CCC6=CC(=O)C=C[C@]6(C)[C@@]5(F)[C@@H](O)C[C@@]43C)C(C)C)[C@@H](C)CC)C(C)C)C(=O)N[C@@H](CCCNC(=N)N)C(=O)NCC(=O)N[C@@H](CO)C(=O)N[C@@H](CCCNC(=N)N)C(=O)N[C@@H](CC(=O)O)C(=O)N[C@H]3CSSC[C@H](NC(=O)[C@H](CCCNC(=N)N)NC(=O)[C@H](CO)NC(=O)[C@H](CC(N)=O)NC1=O)C(=O)N[C@@H](Cc1c[nH]cn1)C(=O)N[C@H](C(=O)N[C@H](C(=O)N1CCC[C@H]1C(=O)O)[C@@H](C)O)CSSC[C@H](NC(=O)[C@@H]1CCCN1C(=O)[C@H](CC(=O)O)NC(=O)[C@H](CC(C)C)NC3=O)C(=O)N[C@@H](CCCNC(=N)N)C(=O)N[C@@H](CCCNC(=N)N)C(=O)N[C@@H](C)C(=O)NCC(=O)N[C@@H](CCSC)C(=O)N[C@@H](CCCNC(=N)N)C(=O)N[C@@H](Cc1ccccc1)C(=O)NCC(=O)N[C@@H](CCCNC(=N)N)C(=O)N2 (stereo partly shown) [Compound 27, peptide(SEQ ID NO: 105)-[dimethyladipic acid]-Dex] (X1-GSGVPINVRCRGSRDCLDPCRRAGMRFGRCINSRCHCTP-OH; disulfide 10-30, 16-35, 20-37 (inferred); C-terminus assumed)
- Half-life (hours) as measured in the hydrolysis experiments ([1]; PBS, release of free Dex, time points to 32 hr): undetectable ≤32
- Hydrolysis half-life ([1]; in PBS, free Dex): No Dex release ≤32 h
- ankle diameter as compared to vehicle; magnitude and duration of effect (CIA rats [2]): significant reduction
- plasma lymphocyte counts as compared to DexSP (CIA rats [3]; 0.05 mg/kg): significantly higher
- spleen weight as compared to DexSP (CIA rats [3]; 0.05 mg/kg): significantly higher
- plasma lymphocyte counts as compared to vehicle (CIA rats [3]; [4]): significantly reduced
- spleen weight as compared to vehicle (CIA rats [3]; [4]): significantly reduced
- thymus weight as compared to vehicle (CIA rats [3]; [4]): significantly reduced
- ankle inflammation (CIA rats [3]; highest dose of 0.05 mg/kg daily for 7 days): effective at reducing ankle inflammation
- ankle inflammation (CIA rats [3]; lower doses (0.001, 0.005, 0.01 mg/kg) daily for 7 days): indistinguishable from vehicle

From patent US20210252159A1, “CONJUGATES OF CARTILAGE-HOMING PEPTIDES” (priority 2018, published 2021)
